Assay results reported in US20230295259A1 (Protagonist Therapeutics, Inc., priority 2020, published 2023).
Starred links: 1 amine or outer side, 2 acyl side, 3 side chain; linkers in the order of their positions; H or OH if unused. Positions of bridges follow the written chain, without caps; N, C: chain ends. Non-standard residues stand in square brackets, D forms with d. Groups on a side chain read outwards from the residue. *: point of attachment. PEG12 = NCCOCCOCCOCCOCCOCCOCCOCCOCCOCCOCCOCCOCCC(=O)O; C18 diacid = O=C(O)CCCCCCCCCCCCCCCCC(=O)*; Dip = N[C@H](C(=O)O)C(c1ccccc1)c1ccccc1; γGlu = O=C(O)[C@H](CCC(=O)[*:2])N[*:1]; Palmitoyl = CCCCCCCCCCCCCCCC(=O)*; β3hF = N[C@H](CC(=O)O)Cc1ccccc1; Isovaleryl = CC(C)CC(=O)*

T1: human ferroportin (SLC40A1) fused in frame with GFP, stably expressed in HEK293 cells (human, UniProt Q9NP59 1-571)
T1 sequence (looked up): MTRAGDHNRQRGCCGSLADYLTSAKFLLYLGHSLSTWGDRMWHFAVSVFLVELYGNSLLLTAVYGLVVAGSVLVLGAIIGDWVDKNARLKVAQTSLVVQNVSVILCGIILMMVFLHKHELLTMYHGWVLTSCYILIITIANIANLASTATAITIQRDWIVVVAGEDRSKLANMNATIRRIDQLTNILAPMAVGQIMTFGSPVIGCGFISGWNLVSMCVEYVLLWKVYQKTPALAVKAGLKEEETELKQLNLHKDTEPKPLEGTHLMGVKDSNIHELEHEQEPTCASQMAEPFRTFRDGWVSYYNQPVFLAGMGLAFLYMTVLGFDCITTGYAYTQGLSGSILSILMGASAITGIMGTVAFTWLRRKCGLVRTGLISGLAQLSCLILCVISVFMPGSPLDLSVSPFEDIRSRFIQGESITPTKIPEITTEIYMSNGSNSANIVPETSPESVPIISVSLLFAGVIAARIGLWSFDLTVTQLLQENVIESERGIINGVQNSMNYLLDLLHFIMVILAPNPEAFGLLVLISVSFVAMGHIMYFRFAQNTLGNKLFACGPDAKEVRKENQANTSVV

T2: ferroportin endogenously expressed on T47D human breast carcinoma cells (human, UniProt Q9NP59 1-571)
T2 sequence (looked up): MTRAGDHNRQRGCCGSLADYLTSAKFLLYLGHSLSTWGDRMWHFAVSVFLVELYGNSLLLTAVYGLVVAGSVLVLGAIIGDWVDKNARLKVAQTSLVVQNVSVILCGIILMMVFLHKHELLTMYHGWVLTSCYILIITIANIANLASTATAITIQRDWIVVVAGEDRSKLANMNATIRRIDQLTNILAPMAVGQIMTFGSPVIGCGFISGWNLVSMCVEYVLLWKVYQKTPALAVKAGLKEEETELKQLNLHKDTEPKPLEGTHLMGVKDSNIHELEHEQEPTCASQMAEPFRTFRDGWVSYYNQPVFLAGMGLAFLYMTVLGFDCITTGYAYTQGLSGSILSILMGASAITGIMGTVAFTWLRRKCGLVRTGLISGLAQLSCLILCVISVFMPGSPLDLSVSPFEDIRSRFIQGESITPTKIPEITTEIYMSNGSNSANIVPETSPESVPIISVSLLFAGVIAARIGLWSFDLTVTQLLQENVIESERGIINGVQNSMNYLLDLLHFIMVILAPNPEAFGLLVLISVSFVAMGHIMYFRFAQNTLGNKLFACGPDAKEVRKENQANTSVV

T3: human ferroportin (Homo sapiens, UniProt Q9NP59)
T3 construct: expressed in transfected cells
T3 sequence (Q9NP59 1-571): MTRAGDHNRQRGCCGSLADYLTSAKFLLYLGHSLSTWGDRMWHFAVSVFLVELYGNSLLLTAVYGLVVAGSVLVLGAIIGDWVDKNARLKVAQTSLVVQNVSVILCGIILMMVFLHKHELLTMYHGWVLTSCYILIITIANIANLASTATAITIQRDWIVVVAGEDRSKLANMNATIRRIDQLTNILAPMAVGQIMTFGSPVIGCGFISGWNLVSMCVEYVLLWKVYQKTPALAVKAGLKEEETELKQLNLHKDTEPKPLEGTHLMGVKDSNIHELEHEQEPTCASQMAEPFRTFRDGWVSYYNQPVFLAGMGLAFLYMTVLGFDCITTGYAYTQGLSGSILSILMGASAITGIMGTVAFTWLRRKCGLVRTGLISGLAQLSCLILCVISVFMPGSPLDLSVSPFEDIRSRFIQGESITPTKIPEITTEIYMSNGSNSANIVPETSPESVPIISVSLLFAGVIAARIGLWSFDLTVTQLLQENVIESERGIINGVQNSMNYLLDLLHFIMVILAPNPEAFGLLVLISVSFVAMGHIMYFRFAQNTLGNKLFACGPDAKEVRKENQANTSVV

B1: Compound 202 (peptide)
peptide: XETXXPCIXXXC
modifications: Isovaleric Acid-E-T-[His_1Me]-[Dpa]-P-C-I-[Lys(PEG12_Palm)]-[bhPhe]-[(D)Lys]-C-NH2
B2: Compound 202 (peptide)
peptide: XETXXPCIXXXC
modifications: Isovaleric Acid-E-T-[His_1Me]-[Dpa]-P-C-I-[Lys(PEG12_Palm)]-[bhPhe]-[(D)Lys]-C-NH2
B3: Compound 53 (peptide)
peptide: XETHXPCIXXXC
modifications: Isovaleric Acid-E-T-H-[(4F)Phe]-P-[Cys]-I-[Lys(2Peg11′_Palm)]-[bhPhe]-[(D)Lys]-[Cys]-NH2
B4: Compound 19 (peptide)
peptide: XETHXPCIXXXXC
modifications: Isovaleric Acid-E-T-H-[Dpa]-P-[Cys]-I-[(D)Lys(2Peg11′_OMe)]-[bhPhe]-[Lys(Ahx_Palm)]-[(D)Lys(2Peg11′_OMe)]-[Cys]-NH2
B5: Compound 294 (peptide)
peptide: Isovaleryl-ETH[Dip]PCIK([PEG12-Palmitoyl])[β3hF]K(PEG30K)RC-NH2
modifications: disulfide 6-12 (inferred)
B6: Compound 6 (peptide)
peptide: XETHXPCIXXXXC
modifications: Isovaleric Acid-E-T-H-[Dpa]-P-[Cys]-I-[(D)Lys]-[bhPhe]-[Lys(Ahx_Palm)]-[(D)Lys]-[Cys]-NH2
B7: Compound 222 (peptide)
peptide: Isovaleryl-ETHFPCIK([γGlu-C18 diacid])FEPRSKGCK-NH2
modifications: not fully specified (bridges); cysteine pairing not given here
B8: Compound 279 (peptide)
peptide: XXTHXPCIXXXC
modifications: Isovaleric Acid-[Glu_OMe]-T-H-[Dpa]-P-C-I-[Lys(1PEG2_1PEG2_Dap_C18_Diacid)]-[bhPhe]-[(D)Lys]-C-NH2
B9: Compound 296 (peptide)
peptide: Isovaleryl-ETH[Dip]PCIK(PEG40KB)[β3hF]K([PEG12-Palmitoyl])RC-NH2
modifications: disulfide 6-12 (inferred)
B10: Compound 272 (peptide)
peptide: XETHXXCIXXXC
modifications: Isovaleric Acid-E-T-H-[Dpa]-[Npc]-C-I-[Lys(1PEG2_1PEG2_IsoGlu_C18_Diacid)]-[bhPhe]-[(D)Lys]-C-NH2
B11: Compound 256 (peptide)
peptide: XETHXPCIXXXC
modifications: not fully specified; Isovaleric Acid-E-T-H-[Dpa]-P-C-I-[Lys(1PEG2_1PEG2_Ahx_C18_Diacid)]-[bhPhe]-[(D)Lys(PEG7_OMe)]-C-NH2
B12: Compound 295 (peptide)
peptide: Isovaleryl-ETH[Dip]PCIK([PEG12-Palmitoyl])[β3hF]K(PEG40KB)RC-NH2
modifications: disulfide 6-12 (inferred)

Biological target: T1, human ferroportin (SLC40A1) fused in …
Experiment: cell-based or functional assay
Conditions: not given

For B1, the “FPN EC50” value was 25.6 nM.

Biological target: T2, ferroportin endogenously expressed on …
Experiment: cell-based or functional assay
Conditions: not given

First: B2
Second: B3
The “IC50: T47D Internalization MSA” value of the first is 3.3-fold higher: 4.3 nM for the first, 1.3 nM for the second.

Going from B4 to B5, the “IC50: T47D Internalization MSA” value rises from 2.56 nM to 7.19 nM (2.8-fold).

Going from B6 to B7, the “IC50: T47D Internalization MSA” value rises from 1.95 nM to greater than 1000 nM.

Going from B8 to B9, the “IC50: T47D Internalization MSA” value rises from 15.4 nM to 109 nM (7.1-fold).

Compared with B10, B11 is 2-fold lower in “IC50: T47D Internalization MSA” value: 137 nM for the first, 68.9 nM for the second.

With B12 the “IC50: T47D Internalization MSA” value was 9.22 nM.

Biological target: T3, human ferroportin
Experiment: FPN activity assay: internalization/degradation of ferroportin-GFP in stably transfected HEK293 cells (decrease in GFP fluorescence)
Assay type: cell-based
Conditions: Table 2A; HEK293 cells expressing human ferroportin-GFP, at least 18 hours incubation
Experimental: Following internalization, the ferroportin protein is degraded.
A retro inverse peptide is a peptide with a reversed sequence in all D amino acids. An example is that Hy-Glu-Thr-His-NH2 becomes Hy-DHis-DThr-DGlu-NH2. The EC50 of these reference compounds for ferroportin internalization/degradation was determined according to the FPN activity assay described above. These peptides served as control standards.
These values were determined as described herein.

Compared with “Isovaleric Acid-E-T-H-[Dpa]-P-[Cys]-I-[Lys(2Peg11′_Palm)]-[bhPhe]-[Lys(2Peg20K)]-R-[Cys]-NH2 [Compound 47]”, “Isovaleric Acid-E-T-H-[Dpa]-P-[Cys]-I-[Lys(Ac)]-[bhPhe]-[Lys(2Peg20K)]-R-[Cys]-NH2 [Compound 46]” is higher in EC50: 58.2 nM for the first, greater than 3000 nM for the second. The first is the more potent here.

Same assay, conditions: Table 2B; HEK293 cells expressing human ferroportin-GFP, at least 18 hours incubation

Going from “Isovaleric Acid-E-T-H-[Dpa]-P—C—I-[Lys(1PEG2_1PEG2_Ahx_C18_Diacid)]-[bhPhe]-[(D)Lys(PEG40KB-C—NH2 [Compound 297]” to “Isovaleric Acid-E-T-H-[Dpa]-P—C—I-[Lys(1PEG2_1PEG2_Ahx_Palm)]-[bhPhe]-[(D)Lys(PEG20K-C—NH2 [Compound 314]”, the EC50 falls from 1360 nM to 357 nM (3.8-fold). The second is the more potent here.

Compared with “Isovaleric Acid-E-T-H-[Dpa]-P—C—I-[Lys(PEG40KB)]-[bhPhe]-[Lys(PEG12_Palm)]-R—C—NH2 [Compound 296]”, “Isovaleric Acid-E-T-H-[Dpa]-P—C—I-[Lys(Ahx_Palm)]-[bhPhe]-[(D)Lys(PEG20K)]-C—NH2 [Compound 312]” is 33-fold lower in EC50: 1080 nM for the first, 32.6 nM for the second. The second is the more potent here.

Same assay, conditions: Table 2D (Illustrative Monomer Hepcidin Analogues); ferroportin-GFP HEK293 cells; read-out: IC50: FPN internalisation

With `CC[C@H](C)[C@@H]1NC(=O)[C@@H](NC(=O)[C@@H]2CCCN2C(=O)[C@@H](NC(=O)[C@H](Cc2ccncc2)NC(=O)[C@@H](NC(=O)[C@H](CCC(=O)OC)NC(=O)CC(C)C)[C@@H](C)O)C(c2ccccc2)c2ccccc2)CSSC[C@@H](C(N)=O)NC(=O)[C@@H](CCCCN)NC(=O)C[C@H](Cc2ccccc2)NC(=O)[C@H](CCCCNC(=O)COCCOCCNC(=O)COCCOCCNC(=O)[C@H](CN)NC(=O)CCCCCCCCCCCCCCCCC(=O)O)NC1=O` [Compound 499] the DC50 was 14.3 nM.

System: LAD2 cells
Experiment: not given
Assay type: cell-based, human
Conditions: LAD2 mast cells, β-hexosaminidase release, 30 minutes incubation; read-out: EC50: LAD2
Excerpt: In anaphylactoid reactions, the main mechanism involves the direct stimulation of mast cells or basophils, leading to the release of anaphylactic mediators such as histamine and β-hexosaminidase. A recent study by McNeil et al. (McNeil B D et al., 2015) reported that MrgprX2, a specific membrane receptor on human mast cells, induces anaphylactoid reactions. The LAD2 (Laboratory of Allergic Diseases 2) human mast cell line, derived from human mast cell sarcoma/leukemia (Kirshenbaum et al., 2003), is commonly employed to study anaphylactoid reactions, because its biological properties are identical to those of primary human mast cells, including the overexpression of the MrgprX2 receptor and sensitivity towards degranulating peptides (Kulka et al., 2008). The release of anaphylactic mediators such as f-hexosaminidase, is assessed by fluorometric quantification.
On the day of the assay, serial dilutions of compounds were added to LAD2 cells plated at 20000 cells/well in a 96-well plate. After incubation for 30 minutes, the amount of β-hexosaminidase released into the supernatants and in cell lysates was quantified using the fluorogenic substrate 4-methylumbelliferyl-N-acetyl-b-D-glucosaminide. Dose-response curves were generated by plotting the % of β-hexosaminidase release (y-axis) against the concentrations of peptides tested (x-axis). […]. (Table 2D).

With “Isovaleric Acid-E-T-H-[Dpa]-P-[Cys]-I-[Lys(2Peg11′_Palm)]-[bhPhe]-[Lys(2Peg20K)]-R-[Cys]-NH2 [Compound 47]” the EC50 was greater than 12.5 µM.
